B1: SLC25A39 (parent)
chain: LTSDLYAPMVAGALARLGTVTVIS
B2: RIPK4 (parent)
chain: VSVNAQTLDGRTPLHLAAQRGHYR

Variants of: B1
Assay: protein stability index of a GFP-peptide fusion (GPS, HEK-293T) (PSI 1-6); higher = more stable
Details: c terminus: a fixed tail appended
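Note: lentivirally expressed fusions sorted by FACS into six bins by GFP to DsRed ratio, PSI derived from sequencing read proportions per bin multiplied by bin number.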

Protein stability index of substitutions, site by site:
L1: P 1.62 | Q 1.84 | S 1.41 | T 1.75 | V 1.88
T2: A 3.92 | C 4.26 | D 2.1 | E 2.15 | G 3.56 | H 2.88 | K 1.57 | M 3.56 | N 2.52 | Q 2.49 | S 2.68 | W 1.61 | Y 4.43
S3: A 2.75 | D 2.96 | F 3.67 | G 3.59 | H 2.4 | I 2.51 | K 1.13 | L 3.13 | M 2.73 | N 1.56 | P 1.35 | Q 1.86 | R 2.83 | T 1.38 | V 3.21 | Y 2.41
D4: C 4.74 | P 2.89 | Q 2.88 | R 3.25 | S 2.07 | T 2.84 | V 3.22 | W 3.9 | Y 5.3
L5: A 2.14 | C 3.99 | D 1.89 | E 1.69 | G 2.8 | H 1.34 | I 1 | K 3.21 | M 2.95 | N 1.89 | P 2.31 | Q 1.65 | R 2.09 | S 2.12 | T 1.48 | Y 3.05
Y6: A 2.37 | C 2.31 | D 1.55 | E 2 | F 3.72 | G 1.13 | H 2.34 | M 2.09 | N 1.34 | P 1.98 | Q 2.01 | R 1.47 | S 1.34 | T 1.82 | V 2.13 | W 3.76
A7: C 2.42 | D 1.17 | H 2.38 | I 4.33 | K 1.61 | L 3.74 | N 1.97 | P 1.87 | Q 2.86 | R 3.29 | S 2.38 | T 1.62 | V 1.96
P8: A 1.5 | C 2.52 | D 3.54 | E 3.86 | I 1.62 | L 2.02 | M 3.46 | N 1.7 | S 3.97 | T 3.06 | W 2.68
M9: A 2.21 | C 1.65 | D 1.78 | E 2.54 | G 1.6 | H 1.77 | I 2.76 | K 1.52 | L 3.65 | N 1.01 | P 1.5 | Q 2.57 | R 1.36 | S 1.75 | T 2.35 | Y 3.86
V10: A 3.92 | C 3.02 | D 1.9 | E 1.21 | F 2.85 | G 2.72 | H 2.45 | K 2.15 | M 4.25 | N 1.96 | P 1.85 | Q 1.96 | R 1.49 | S 2.6 | T 3.25 | W 2.29 | Y 2.63
A11: D 1.65 | F 3.02 | H 2.69 | K 2.39 | L 2.5 | M 2.95 | N 2.3 | P 3.19 | Q 1.65 | T 2.81 | Y 4.45
G12: H 2.64 | I 3.04 | K 3.64 | L 3.83 | P 1.23 | Q 4.46 | R 3.52 | S 1.53 | V 3.9 | Y 2.21
A13: C 2.73 | D 1.74 | H 2.47 | K 3.56 | M 3.17 | N 2.09 | P 1.16 | Q 2.61 | R 1.79 | S 1.38 | T 1.75 | V 2.79
L14: A 1.79 | C 3.43 | D 1.83 | E 1.91 | F 3.32 | G 2.76 | H 1.12 | K 1 | N 1.69 | P 2.24 | Q 1.53 | R 1.72 | S 1.69 | T 1.58 | V 2.83 | W 5.23 | Y 3.67
A15: D 1.93 | E 1.39 | F 2.6 | G 2.69 | K 3.12 | L 1.45 | M 4.42 | N 1.87 | P 1.97 | Q 3.66 | R 2.1 | S 3.49 | T 3.55
R16: A 2.1 | D 2.58 | E 1.76 | F 4.13 | I 2.97 | L 2.76 | M 3.22 | N 1.5 | P 1.98 | Q 3.11 | S 2.41 | W 2.85 | Y 2.35
L17: A 1.92 | C 1.56 | D 2.47 | E 2.71 | F 2.95 | G 3.15 | H 2.7 | I 3.23 | K 1.75 | N 1.96 | P 1.69 | R 1.1 | S 2.51 | T 1.52 | V 2.22 | W 4.43 | Y 2.12
G18: A 2.61 | D 2.53 | H 4.48 | K 2.53 | P 2.57 | R 2.66 | T 3.39 | W 3.57
T19: D 1.76 | G 1.91 | H 1.94 | K 2.21 | Q 1.8 | V 2.87
V20: D 2.73 | E 2.43 | F 2.09 | G 1.99 | H 3.15 | I 3.37 | K 2.05 | N 2.54 | P 1.45 | R 1.76 | S 2.26 | T 1.02 | W 1.77 | Y 3.19
T21: D 3.1 | E 2.09 | F 3.5 | H 2.26 | M 2.7 | N 2.79 | Q 2.95 | R 2.12 | V 2.03 | W 3.97
V22: A 2.58 | C 3.43 | D 1.49 | E 2.08 | F 2.47 | K 1.74 | L 3.04 | N 1.11 | P 1.61 | R 2.82 | S 2.31 | T 2.04 | Y 1.6
I23: D 2.3 | E 2.54 | G 2.18 | K 2.04 | L 2.75 | N 1.98 | P 1.8 | Q 2.56 | R 1.87 | S 1.95 | Y 2.31
S24: C 3.08 | D 3.34 | E 2.61 | G 3 | H 3.6 | I 1.56 | K 1.61 | N 1.91 | P 2.21 | Q 1.45 | R 2.26 | T 4.15 | W 3.06

Variants of: B2
Assay: as above
Details: c terminus: a fixed tail appended

Protein stability index of substitutions, site by site:
V1: A 3.94 | C 2.54 | D 4.66 | E 3.97 | F 3.39 | G 3.76 | H 3.79 | I 3.54 | K 3.74 | L 3.98 | M 4.21 | N 4.12 | P 3.85 | Q 3.99 | R 4.06 | S 3.62 | T 3.78 | W 3.5 | Y 3.59
S2: A 3.24 | C 2.93 | D 4.08 | E 3.27 | F 2.57 | G 3.97 | H 2.42 | I 2.18 | K 3.41 | L 2.86 | M 2.89 | N 3.73 | P 3.75 | Q 3.22 | R 3.33
